# Assay results reported in IntAct's records for PubMed 9012831.
# B1: Tyrosine-protein kinase BTK (Homo sapiens), Q06187 (parent)
# chain: MAAVILESIFLKRSQQKKKTSPLNFKKRLFLLTVHKLSYYEYDFERGRRGSKKGSIDVEKITCVETVVPEKNPPPERQIPRRGEESSEMEQISIIERFPYPFQVVYDEGPLYVFSPTEELRKRWIHQLKNVIRYNSDLVQKYHPCFWIDGQYLCCSQTAKNAMGCQILENRNGSLKPGSSHRKTKKPLPPTPEEDQILKKPLPPEPAAAPVSTSELKKVVALYDYMPMNANDLQLRKGDEYFILEESNLPWWRARDKNGQEGYIPSNYVTEAEDSIEMYEWYSKHMTRSQAEQLLKQEGKEGGFIVRDSSKAGKYTVSVFAKSTGDPQGVIRHYVVCSTPQSQYYLAEKHLFSTIPELINYHQHNSAGLISRLKYPVSQQNKNAPSTAGLGYGSWEIDPKDLTFLKELGTGQFGVVKYGKWRGQYDVAIKMIKEGSMSEDEFIEEAKVMMNLSHEKLVQLYGVCTKQRPIFIITEYMANGCLLNYLREMRHRFQTQQLLEMCKDVCEAMEYLESKQFLHRDLAARNCLVNDQGVVKVSDFGLSRYVLDDEYTSSVGSKFPVRWSPPEVLMYSKFSSKSDIWAFGVLMWEIYSLGKMPYERFTNSETAEHIAQGLRLYRPHLASEKVYTIMYSCWHEKADERPTFKILLSNILDVMDEES
# Variants of: B1
# Settings: with gtf2i_human GTF2I
row,Variant,effect of a mutation on the interaction
1,R307K,decreasing interaction
2,Y551F,decreasing interaction
3,Y223F,decreasing interaction
